Molecular target: the molecule itself
Experiment: crystal structure

B1: M. tuberculosis E2b catalytic domain (MtE2b_CD) (domain or fragment)
chain: PDVRPVHGVHARMAEKMTLSHKEIPTAKASVEVICAELLRLRDRFVSAAPEITPFALTLRLLVIALKHNVILNSTWVDSGEGPQVHVHRGVHLGFGAATERGLLVPVVTDAQDKNTRELASRVAELITGAREGTLTPAELRGSTFTVSNFGALGVDDGVPVINHPEAAILGLGAIKPRPVVVGGEVVARPTMTLTCVFDHRVVDGAQVAQFMCELRDLIESPETALLDL
  stoichiometry N: 24

Reference: paper doi:10.1101/2020.07.24.212647 (bioRxiv, 2020)
